Tests used:
[1] = biological target: CXCR4 (Homo sapiens, UniProt P61073); assay: Intracellular calcium mobilization in Sup T1 cells; type: cell-based; settings: 50 nM, Sup T1 cells expressing CXCR4, fura-2; representative of at least three independent experiments
[2] = biological target: chemokine receptor CXCR4, wild type (human) (UniProt P61073); assay: 12G5 antibody competition binding on cells
[3] = biological target: CXCR4 mutant E288D (human) (UniProt P61073); assay: 12G5 antibody competition binding on cells
[4] = biological target: CXCR4 mutant Y45A (human) (UniProt P61073); assay: 12G5 antibody competition binding on cells
[5] = biological target: CXCR4 mutant W252A (human) (UniProt P61073); assay: 12G5 antibody competition binding on cells
[6] = biological target: CXCR4 mutant D171A (human) (UniProt P61073); assay: 12G5 antibody competition binding on cells
[7] = biological target: CXCR4 mutant F292A (human) (UniProt P61073); assay: 12G5 antibody competition binding on cells
[8] = biological target: CXCR4 mutant Y121A (human) (UniProt P61073); assay: 12G5 antibody competition binding on cells
[9] = biological target: CXCR4 mutant F87A (human) (UniProt P61073); assay: 12G5 antibody competition binding on cells
[10] = biological target: CXCR4 mutant DNX4 (human) (UniProt P61073); assay: 12G5 antibody competition binding on cells
[11] = biological target: CXCR4 mutant Y255A (human) (UniProt P61073); assay: 12G5 antibody competition binding on cells

For stromal cell-derived factor-1α [SDF-1α], the “Mobilization of calcium (Ca2+)” value [1] was “rapid Ca^2+ mobilization”.

DV1 dimer (peptide) was tested, and the IC50 [2] was 3 nM, the decrease of binding against wild-type CXCR4 [3] was 40% and the decrease of binding against wild-type CXCR4 [4] was 20%. The decrease of binding against wild-type CXCR4 [5] was 20%, the decrease of binding against wild-type CXCR4 [6] was 60% and the decrease of binding against wild-type CXCR4 [7] was 20%. The decrease of binding against wild-type CXCR4 [8] was 20%, the decrease of binding against wild-type CXCR4 [9] was 40% and the increase of % bound 12G5 against wild-type CXCR4 [10] was 15%. It also gave a decrease of binding against wild-type CXCR4 [11] of 20%.
